{"source": "patent US8624010", "about": "(Amgen, dated 2014)", "binders": {"B1": {"name": "murine B7RP1 (B7 related protein-1), membrane-bound (ligand)", "chain": "ETEVGAMVGSNVVLSCIDPHRRHFNLSGLYVYWQIENPEVSVTYYLPYKSPGINVDSSYKNRGHLSLDSMKQGNFSLYLKNVTPQDTQEFTCRVFMNTATELVKILEEVVRLRVAANFSTPVISTSDSSNPGQERTYTCMSKNGYPEPNLYWINTTDNSLIDTALQNNTVYLNKLGLYDVISTLRLPWTSRGDVLCCVENVALHQNITSISQAESFTGNNTKNPQETHNNELKVLVPVLAVLAAAAFVSFIIYRRTRPHRSYTGPKTVQLELTDHA", "notes": "also called mB7RP1; ligand for CRP1"}, "B2": {"name": "B7.2 (ligand)", "chain": "VSVETQAYFNGTAYLPCPFTKAQNISLSELVVFWQDQQKLVLYEHYLGTEKLDSVNAKYLGRTSFDRNNWTLRLHNVQIKDMGSYDCFIQKKPPTGSIILQQTLTELSVIANFSEPEIKLAQNVTGNSGINLTCTSKQGHPKPKKMYFLITNSTNEYGDNMQISQDNVTELFSISNSLSLSFPDGVWHMTVVCVLETESMKISSKPLNFTQEFPSPQTYWK", "notes": "also called CD86; B7.2-Fc; not shown: The Fc part (detected with anti-human Fc) and any linker"}}, "key": {"[1]": {"molecular_target": "B2", "assay": "ACAS cell surface display assay, Fc fusion protein on transfected cells, FITC anti-human Fc detection", "experimental": "(§1) Figure 5: FIG. 5. Interaction of CRP1-Fc and B7RP1-Fc fusion proteins with membrane-bound proteins expressed in COS-7 cells. COS-7 cells transiently transfected with pcDNA3/CRP1, pcDNA3/B7RP1, or pcDNA3 vector alone. CHO D-cells were transfected with psDRα/hCD28 and stably expressed human CD28 (hCD28). Cells expressing membrane-bound CRP1, B7RP1, or hCD28, are represented in rows as indicated at the left side of the panel. Fc fusion proteins were incubated with the plate-bound cells in columns as indicated at the top of the panel. After incubation, cells were washed, and bound Fc fusion proteins were detected using an anti-human Fc antibody and ACAS (Adherent Cell Analysis and Sorting; ACAS Ultima, Meridian Instruments, Inc., Okemos, Mich.) analysis. Figure 6A: FIG. 6. FACS (Fluorescence-Activated Cell Sorter) analysis of expression of the receptor for B7RP1 (putatively, CRP1) on activated CD4+ and CD8+ T-cells. Mouse splenocytes were activated with PMA and ionomycin for 12 hours. B7RP1-Fc fusion protein, control Fc protein (Mock-Fc), or PBS (no stain), were incubated with the cells, washed, and subsequently incubated with goat-anti-human Fc-FITC conjugated antibody(GaHuFc-FITC) as indicated at the bottom of each panel. […]"}, "[2]": {"molecular_target": "T1, murine B7RP1-Fc fusion protein (murine; human, UniProt P01857-1 96-330 = IgG part)", "T1 construct": "domain: carboxy terminal 235 amino acids of the human Fc gene (isotype IgG1); Made in 293T cells and purified on Protein A. The construct encodes residues 1-269; also called mB7RP1-Fc; muB7RP1-Fc", "assay": "flow cytometry on PMA/ionomycin-activated mouse splenocytes, lymphocyte gate; detection with goat anti-human Fc-FITC; no PE stain; receptor on the cells is putatively CRP1", "experimental": "The B7RP1-Fc fusion protein was utilized to detect cells that expressed receptors to B7RP1, presumably including the CRP1 protein (see Example 6), by FACS analysis. Spleens were removed from female C57/Black 6 mice, ground on 100 micron mesh filters to release the lymphocytes, passed through 70 micron filters, and then washed in 50 ml of RPMI-1640. They were pelleted at 1500 rpm, resuspended in fresh RPMI, mixed to break up the clumping cells, and passed through a 40 micron filter. T-cells to be activated were seeded into 6 well plates in RPMI-1640, 5% FBS, 1×PSG, PMA, ionomycin, and incubated at 37° C., 5% CO2 overnight. T-cell activation was checked by visual confirmation after 12 hr.\n(§2) Activated spleen cells for immunostaining were washed in PBS, 0.5% BSA (Path-ocyte 4, ICN Pharmaceuticals) wash buffer, resuspended, and then aliquoted in 100 µl volumes. 15 µg/ml of either the CRP1-Fc fusion protein or the B7RP1-Fc fusion protein was added (1.5 µg/sample) as appropriate, and then the mixtures were incubated on ice for 30 min with occasional mixing. The cells were washed twice in 5.0 ml of wash buffer. Binding of the fusion proteins was visualized with 2 µg of goat-anti-human (GaHuFc-FITC) conjugated secondary antibody in a 100 µl volume for cell staining. […]"}, "[3]": {"molecular_target": "T2, murine CRP1-Fc fusion protein (murine; human, UniProt P01857-1 96-330 = IgG part)", "T2 construct": "domain: carboxy terminal 235 amino acids of the human Fc gene (isotype IgG1); Made in 293T cells and purified on Protein A. The construct encodes residues 1-147; also called mCRP1-Fc", "assay": "flow cytometry on non-activated mouse splenocytes, double stain with CD45R-PE; detection with goat anti-human Fc-FITC; ligand on the cells is presumably B7RP1", "experimental": "PE conjugated cell marker antibody to CD45R (CD45R is a B-cell marker) or isotype control antibody (rat isotype), or PBS (no stain), were added as indicated at the left side of each individual panel.\nas §2, with “staining. Cell marker antibodies conjugated with PE were added with the GaHUFc-FITC, as well as control isotype-PE conjugated antibody controls where indicated (rat isotype).” for “staining.”\nThe CRP1-Fc fusion protein was utilized to detect cells that expressed ligands to CRP1, presumably including the B7RP1 protein (see Example 8), by FACS analysis (FIG. 7). Splenocytes were prepared as in Example 8, except the 12 hr T-cell activation step was omitted and the cells were directly analyzed. […] Cells were detected that expressed both the CD45R B-cell marker and the putative ligands for CRP1, presumably including B7RP1 (Example 8)."}, "[4]": {"molecular_target": "B1", "assay": "ACAS cell surface display assay, Fc fusion protein on transfected cells, FITC anti-human Fc detection", "experimental": "as §1"}}, "data": [{"binder": "murine CRP1 (CD28 related protein-1), membrane-bound (receptor, also called mCRP1; receptor for B7RP1) EINGSADHRMFSFHNGGVQISCKYPETVQQLKMRLFREREVLCELTKTKGSGNAVSIKNPMLCLYHLSNNSVSFFLNNPDSSQGSYYFCSLSIFDPPPFQERNLSGGYLHIYESQLCCQLKLWLPVGCAAFVVVLLFGCILIIWFSKKKYGSSVHDPNSEYMFMAAVNTNKKSRLAGVTS", "values": [{"measurement": "binding result", "setting": "[1]", "result": "no binding"}, {"measurement": "binding result", "setting": "[2]", "result": "binds"}]}, {"binder": "B1", "values": [{"measurement": "binding result", "setting": "[3]", "result": "binds"}]}, {"binder": "B2", "values": [{"measurement": "binding result", "setting": "[4]", "result": "no binding"}]}]}
